Measurements taken from article PMC3526295.

T1: Mre11-W243R (Homo sapiens, UniProt P49959 1-708, W243R)
T1 sequence: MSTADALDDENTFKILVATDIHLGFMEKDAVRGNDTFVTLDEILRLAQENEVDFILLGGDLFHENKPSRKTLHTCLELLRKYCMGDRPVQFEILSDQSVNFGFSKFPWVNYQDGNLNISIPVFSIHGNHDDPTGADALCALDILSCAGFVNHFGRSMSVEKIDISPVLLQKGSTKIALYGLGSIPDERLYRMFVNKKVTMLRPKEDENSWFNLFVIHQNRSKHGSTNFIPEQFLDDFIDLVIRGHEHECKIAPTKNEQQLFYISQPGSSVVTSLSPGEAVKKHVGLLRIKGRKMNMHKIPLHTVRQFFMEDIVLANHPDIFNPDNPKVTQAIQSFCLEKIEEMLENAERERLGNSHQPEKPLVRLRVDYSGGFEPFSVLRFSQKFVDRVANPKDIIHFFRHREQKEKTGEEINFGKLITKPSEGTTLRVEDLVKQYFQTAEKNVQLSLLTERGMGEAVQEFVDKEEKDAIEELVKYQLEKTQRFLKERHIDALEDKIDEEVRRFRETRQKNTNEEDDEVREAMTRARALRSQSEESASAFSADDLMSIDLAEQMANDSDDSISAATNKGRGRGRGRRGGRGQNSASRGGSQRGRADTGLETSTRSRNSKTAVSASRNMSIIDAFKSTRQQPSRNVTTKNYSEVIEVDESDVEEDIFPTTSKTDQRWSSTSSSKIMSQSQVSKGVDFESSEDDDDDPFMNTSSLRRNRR

B1: ssDNA90 (ssDNA)
DNA: AATTCTCATTTTACTTACCGGACGCTATTAGCAGTGGCAGATTGTACTGAGAGTGCACCATATGCGGTGTGAAATACCGCACAGATGCGT
B2: dsDNA90 (dsDNA)
DNA 1: AATTCTCATTTTACTTACCGGACGCTATTAGCAGTGGCAGATTGTACTGAGAGTGCACCATATGCGGTGTGAAATACCGCACAGATGCGT
DNA 2: ACGCATCTGTGCGGTATTTCACACCGCATATGGTGCACTCTCAGTACAATCTGCCACTGCTAATAGCGTCCGGTAAGTAAAATGAGAATT

Target: T1, Mre11-W243R
Assay: EMSA

Binder	binding result
B1	binds
B2	binds
